# Source: US20120225828A1 (PALATIN TECHNOLOGIES, published 2012)
# Bridge positions count the residues as written; N and C are the ends. Square brackets hold non-standard residues; d marks the D form. Cit = NC(=O)NCCC[C@H](N)C(=O)O; Nle = CCCC[C@H](N)C(=O)O; Orn = NCCC[C@H](N)C(=O)O; Dab = NCC[C@H](N)C(=O)O; Dap = NC[C@H](N)C(=O)O
# Target: human melanocortin-1 receptor hMCR-1 expressed by the human melanoma cell line HBL (human, UniProt Q01726 1-317)
# Experiment: cell-based or functional assay
# Chain of human melanocortin-1 receptor hMCR-1 expressed by the human melanoma cell line HBL (Q01726 whole entry): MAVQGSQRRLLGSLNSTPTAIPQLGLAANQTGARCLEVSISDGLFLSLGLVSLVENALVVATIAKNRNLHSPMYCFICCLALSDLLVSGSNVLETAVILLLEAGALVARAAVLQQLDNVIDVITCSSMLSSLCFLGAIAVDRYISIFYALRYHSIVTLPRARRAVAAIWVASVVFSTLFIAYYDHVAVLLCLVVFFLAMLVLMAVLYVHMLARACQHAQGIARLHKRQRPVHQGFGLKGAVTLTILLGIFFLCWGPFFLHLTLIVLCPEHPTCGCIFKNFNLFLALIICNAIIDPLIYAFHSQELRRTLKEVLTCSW
MC-1 EC50 (average; cAMP HBL) [nM],MC-1 Emax (average; cAMP HBL) [%],Binder
0.115,72,Ac-[Nle]EH[dF]A[Dab]W-NH2 (lactam 2-6; SMILES CCCC[C@H](NC(C)=O)C(=O)N[C@H]1CCC(=O)NCC[C@@H](C(=O)N[C@@H](Cc2c[nH]c3ccccc23)C(N)=O)NC(=O)[C@H](C)NC(=O)[C@@H](Cc2ccccc2)NC(=O)[C@H](Cc2c[nH]cn2)NC1=O) [Ac-Nle-cyclo(Glu-His-D-Phe-Ala-Dab)-Trp-NH2]
0.195,88,Ac-[Nle]DH[dF]R[Dap]W-NH2 (lactam 2-6; SMILES CCCC[C@H](NC(C)=O)C(=O)N[C@H]1CC(=O)NC[C@@H](C(=O)N[C@@H](Cc2c[nH]c3ccccc23)C(N)=O)NC(=O)[C@H](CCCNC(=N)N)NC(=O)[C@@H](Cc2ccccc2)NC(=O)[C@H](Cc2c[nH]cn2)NC1=O) [Ac-Nle-cyclo(Asp-His-D-Phe-Arg-Dap)-Trp-NH2]
–,86,Ac-[Nle]EA[dF]R[Dab]W-NH2 (lactam 2-6) [Ac-Nle-cyclo(Glu-Ala-D-Phe-Arg-Dab)-Trp-NH2]
–,100,Ac-[Nle]ER[dF]R[Dab]W-NH2 (lactam 2-6) [Ac-Nle-cyclo(Glu-Arg-D-Phe-Arg-Dab)-Trp-NH2]
–,97,Ac-[Nle]E[Cit][dF]R[Dab]W-NH2 (lactam 2-6) [Ac-Nle-cyclo(Glu-Cit-D-Phe-Arg-Dab)-Trp-NH2]
0.175,91,Ac-[Nle]EH[dF]R[Dab]K-NH2 (lactam 2-6; SMILES CCCC[C@H](NC(C)=O)C(=O)N[C@H]1CCC(=O)NCC[C@@H](C(=O)N[C@@H](CCCCN)C(N)=O)NC(=O)[C@H](CCCNC(=N)N)NC(=O)[C@@H](Cc2ccccc2)NC(=O)[C@H](Cc2c[nH]cn2)NC1=O) [Ac-Nle-cyclo(Glu-His-D-Phe-Arg-Dab)-Lys-NH2]
–,108,Ac-[Nle]EK[dF]R[Dab]W-NH2 (lactam 2-6) [Ac-Nle-cyclo(Glu-Lys-D-Phe-Arg-Dab)-Trp-NH2]
–,108,Ac-[Nle]E[Dab][dF]R[Dab]W-NH2 (lactam 2-6) [Ac-Nle-cyclo(Glu-Dab-D-Phe-Arg-Dab)-Trp-NH2]
–,109,Ac-[Nle]E[Orn][dF]R[Dab]W-NH2 (lactam 2-6) [Ac-Nle-cyclo(Glu-Orn-D-Phe-Arg-Dab)-Trp-NH2]
0.016,85,Ac-[Nle][Dap]H[dF]R[Dab]W-NH2 (linker 2-6 via C(:O)‑(CH2)2‑C(:O)) [Ac-Nle-cyclo(Dap-His-D-Phe-Arg-Dab)-Trp-NH2 with bridge C(═O)-(CH2)2-C(═O)]
0.32,85,Ac-[Nle]EH[dF]R[Dab]-NH2 (lactam 2-6; SMILES CCCC[C@H](NC(C)=O)C(=O)N[C@H]1CCC(=O)NCC[C@@H](C(N)=O)NC(=O)[C@H](CCCNC(=N)N)NC(=O)[C@@H](Cc2ccccc2)NC(=O)[C@H](Cc2c[nH]cn2)NC1=O) [Ac-Nle-cyclo(Glu-His-D-Phe-Arg-Dab)-NH2 (SEQ ID NO: 47)]
44,73,Ac-[Nle]EH[dF]A[Dab]-NH2 (lactam 2-6; SMILES CCCC[C@H](NC(C)=O)C(=O)N[C@H]1CCC(=O)NCC[C@@H](C(N)=O)NC(=O)[C@H](C)NC(=O)[C@@H](Cc2ccccc2)NC(=O)[C@H](Cc2c[nH]cn2)NC1=O) [Ac-Nle-cyclo(Glu-His-D-Phe-Ala-Dab)-NH2 (SEQ ID NO: 48)]
–,51,Ac-[Nle]EH[dF][Dab]-NH2 (lactam 2-5; SMILES CCCC[C@H](NC(C)=O)C(=O)N[C@H]1CCC(=O)NCC[C@@H](C(N)=O)NC(=O)[C@@H](Cc2ccccc2)NC(=O)[C@H](Cc2c[nH]cn2)NC1=O) [Ac-Nle-cyclo(Glu-His-D-Phe-Dab)-NH2]
